Biological target: S. scrofa RNA polymerase II (transcribing, phosphorylated, on a DNA-RNA scaffold) (S. scrofa)
Experiment: cryo-EM structure

percent of Pol II particles with density for U1 snRNP: 17.5%
Substance: human U1 small nuclear ribonucleoprotein particle (from UniProt P08621;P09012;P09234) (complex)

Source: paper doi:10.1101/2020.10.19.344200
